Assay results as given in article PMC2119460.

Biological target: H-2Db class I MHC molecule on the surface of RMA-S cells (mouse (endogenous in RMA-S))

Q: For influenza NP (365-380) peptide, which fold increase in H-2Db reactivity (mAb 28.14.8) after peptide treatment is on record?
A: The fold increase in H-2Db reactivity (mAb 28.14.8) after peptide treatment was 2 fold.
